Tests used:
[1] = target: T1, cynomolgus monkey BTLA ECD-his (monomeric cynomolgus monkey BTLA-his) (cynomolgus monkey, UniProt A0A2K5W7M7 31-157); experiment: SPR, Biacore T200, antibody captured on anti-human IgG, monomeric cynomolgus monkey BTLA-his as analyte, 25 °C, 1:1 model; 6G3 IgG4 (APE10840.05) captured on the chip; cynomolgus BTLA-his analyte
T1 construct: extracellular domain; also called cynomolgus monkey BTLA extracellular domain
T1 sequence: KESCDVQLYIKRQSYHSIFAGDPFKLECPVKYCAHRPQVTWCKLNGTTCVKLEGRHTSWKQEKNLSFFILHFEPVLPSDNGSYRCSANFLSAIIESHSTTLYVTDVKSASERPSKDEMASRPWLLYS
Protocol: Surface plasmon resonance (SPR) analyses were carried out using a Biacore T200 (GE Healthcare Life Sciences). Kinetic constants were determined using a 1:1 binding model in the Biacore T200 Evaluation Software to calculate on- and off-rates (kₐ and kd, respectively), and dissociation constants as a measure of overall affinity (KD). Anti-human IgG (GE Healthcare Life Sciences) was immobilized on a CMS chip using EDC-activated amine coupling chemistry (420 seconds contact at a flow rate of 10 μl/min). Antibodies (APE10585.04 6G3 IgG1 and APE10840.05 6G3 IgG4), each at 0.5 μg/m1) were captured in a 60 second contact with the flow cell using a flow rate of 10 μl/min. Monomeric human BTLA-his or cynomolgus monkey BTLA-his at 60 nM, 20 nM, 6.7 nM and 2.2 nM concentrations was flowed over captured antibody (480 seconds association, 1800 seconds dissociation). Runs were at 25° C. and used buffer containing 10 mM HEPES, pH 7.6, 150 mM NaCl, 3 mM EDTA, 0.05% polysorbate 20 (HBS-EP+, pH 7.6; Teknova) for the mobile phase and all dilutions. At the end of each cycle, bound antigen was removed by regeneration with two successive exposures (60 seconds and 90 seconds) to 3 M MgCl2 (30 μl/min). Sensorgrams and binding constants corresponding to the experiment are shown in FIG. 1 (human BTLA) and FIG. 1 (cynomolgus monkey BTLA). […]

[2] = target: T1, cynomolgus monkey BTLA ECD-his …; experiment: SPR (Biacore T200), antibody captured on anti-human IgG chip, monomeric BTLA-his flowed at 60, 20, 6.7 and 2.2 nM, 1:1 binding model, 25 C [lower right panel (Cyno BTLA]
Protocol: Surface plasmon resonance (SPR) analyses were carried out using a Biacore T200 (GE Healthcare Life Sciences). Kinetic constants were determined using a 1:1 binding model in the Biacore T200 Evaluation Software to calculate on- and off-rates (kₐ and kd, respectively), and dissociation constants as a measure of overall affinity (KD). Anti-human IgG (GE Healthcare Life Sciences) was immobilized on a CMS chip using EDC-activated amine coupling chemistry (420 seconds contact at a flow rate of 10 μl/min). Antibodies (APE10585.04 6G3 IgG1 and APE10840.05 6G3 IgG4), each at 0.5 μg/m1) were captured in a 60 second contact with the flow cell using a flow rate of 10 μl/min. Monomeric human BTLA-his or cynomolgus monkey BTLA-his at 60 nM, 20 nM, 6.7 nM and 2.2 nM concentrations was flowed over captured antibody (480 seconds association, 1800 seconds dissociation). Runs were at 25° C. and used buffer containing 10 mM HEPES, pH 7.6, 150 mM NaCl, 3 mM EDTA, 0.05% polysorbate 20 (HBS-EP+, pH 7.6; Teknova) for the mobile phase and all dilutions. At the end of each cycle, bound antigen was removed by regeneration with two successive exposures (60 seconds and 90 seconds) to 3 M MgCl2 (30 μl/min). Sensorgrams and binding constants corresponding to the experiment are shown in FIG. 1 (human BTLA) and FIG. 1 (cynomolgus monkey BTLA). Antibody capture levels in resonance units (RU) are listed at the right side of each panel.

[3] = target: T2, human BTLA ECD-his (monomeric human BTLA-his) (human, UniProt Q7Z6A9 31-157); experiment: Kinetic Exclusion Assay (KinExA 3000), solution phase, 6G3 IgG4 APE10840.04 at 100 pM, human BTLA ECD-his titrated
T2 construct: extracellular domain; also called human BTLA extracellular domain
T2 sequence (looked up): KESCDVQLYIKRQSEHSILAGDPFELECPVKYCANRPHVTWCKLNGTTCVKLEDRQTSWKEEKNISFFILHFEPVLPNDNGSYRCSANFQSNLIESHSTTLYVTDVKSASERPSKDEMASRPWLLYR
Protocol: Solution-based affinity measurements of 6G3 IgG4 (APE10840.04 (H Chain SEQ ID NO: 144, L Chain SEQ ID NO: 174)) binding to BTLA were determined on a KinExA 3000 (Sapidyne Instruments). Azlactone beads (ThermoFisher Scientific) were coated with human BTLA ECD-his (30 μg/ml) or cynomolgus monkey BTLA ECD-his (20 μg/ml) in 50 mM Na2CO3 for 2 hours at room temperature and blocked with 10 mg/ml BSA. 6G3 IgG4 APE10840.04 concentration was kept constant at 100 pM for binding in both human and cynomolgus monkey BTLA experiments. Human or cynomolgus monkey BTLA ECD-his was added at 25° C. in 2.5-fold dilutions from 1000 nM to 68 fM. Sample sets were equilibrated at 4° C. for 72 hours and brought to room temperature for 6 hours before capturing free antibody with BTLA-coupled Azlactone beads. […] Maximum and background signals were determined on samples with 6G3 only and buffer only, respectively. Data were analyzed using KinExA Pro Software 3.2.6.

[4] = target: T3, human BTLA on cells (stably transfected 293c18 cells; human peripheral blood T and B cells) (human, UniProt Q7Z6A9 31-289); experiment: flow cytometry (MFI DyL650) on gated CD20+ B cells of human PBMC, DyLight 650-labelled antibody, three-parameter fit [right panel (Naive B cells]
T3 construct: whole, on cells; the cells are named under assay; also called cell surface BTLA; full-length human BTLA
Protocol: Human peripheral blood mononuclear cells (PBMCs) were isolated by Histopaque (Sigma-Aldrich) density-gradient centrifugation of normal donor blood obtained from the San Diego Blood Bank (San Diego, CA). PBMCs were washed and incubated at 2×10⁷ cells/ml in FACS buffer (PBS, 1% BSA, 0.02% sodium azide) with Human BD Fc Block (2.5 μg/1×10⁶ cells, BD Biosciences) and LIVE/DEAD® Fixable Yellow Dead Cell Stain (30 μl, ThermoFisher Scientific) for 10 minutes on ice. Cells were washed once in FACS buffer, resuspended in FACS buffer at 1×10⁷ cells/ml and the following phenotyping antibodies added: Alexa Fluor 488-anti-human CD3E clone SK7, Brilliant Violet 421-anti-human CD4 clone OKT4, Brilliant Violet 785-anti-human CD8 clone SK1, and Brilliant Violet 570-anti-human CD20 clone 2H7 (50 μl each; all from BioLegend, Inc.). […] Samples were washed twice in FACS buffer, resuspended in 150 μl/well FACS buffer, and analyzed for fluorescence on a NovoCyte Flow Cytometer (ACEA Biosciences, Inc.). Data were analyzed using NovoExpress Software (ACEA Biosciences, Inc.). Median fluorescence intensities of anti-BTLA or isotype staining on gated CD4⁺ T cells (FIG. 4), CD8⁺ T cells (FIG. 4), or CD20⁺ B cells (FIG. 4) were graphed and curves fit with log(agonist) vs. response (three parameters) least squares fit for EC₅₀ calculation in GraphPad Prism (GraphPad Software, Inc.).

B1: 6G3 IgG4 anti-BTLA antibody (APE10840 / APE12839 / APE13308) (antibody, V domains shown)
VH: QVQLVQSGAEVKKPGSSVKVSCKASGYVFSTSWMNWVRQAPGQGLEWMGRIYPGDADTNYVGKFKGRVTITADKSTTTAYMELSSLRSEDTAVYFCAKSGTFNFGNYRWYFDVWGKGTTVTVSS
VL: AIQLTQSPSSLSASVGDRVTITCRVSENIYSHLAWYQQKPGKAPKLLIYAATNLALGVPSRFSGSGSGTDYTLTISSLQPEDFATYYCQLFWGPPLTFGGGTKVEIKR
notes: Humanized antibody from a mouse hybridoma, tested as human IgG4 (detected with anti-human kappa); Some assays used labelled lots (DyLight 650, AF647, biotin, DyL488); also called 6G3 antibody; APE10840.03
Kd [1]: ~11 nM
Kd [2]: 11.2 nM
koff [2]: 0.00393 s⁻¹
kon [2]: 351000 M⁻¹ s⁻¹
Kd [3]: ~0.41 nM
EC50 [4]: 0.54 nM

From patent US20230391872A1 (ANAPTYSBIO, published 2023)
